Data from PMC6462529.

Legend:
PG9 = test: D7324-capture ELISA; settings: PGT145-purified trimers; SOSIP.664 AUC-value printed 1.70
PGT151 = test: D7324-capture ELISA; settings: PGT145-purified trimers; SOSIP.664 AUC-value printed 0.75
PGT145 = test: D7324-capture ELISA; settings: PGT145-purified trimers; SOSIP.664 AUC-value printed 0.68
gl-PG9 = test: D7324-capture ELISA; settings: PGT145-purified trimers; SOSIP.664 AUC-value printed 0.14
PGT121 = test: D7324-capture ELISA; settings: PGT145-purified trimers; SOSIP.664 AUC-value printed 1.60
CH01 = test: D7324-capture ELISA; settings: PGT145-purified trimers; SOSIP.664 AUC-value printed 0.32
VRC26.09 = test: D7324-capture ELISA; settings: PGT145-purified trimers; SOSIP.664 AUC-value printed 0.49
gl-CH01 = test: D7324-capture ELISA; settings: PGT145-purified trimers; SOSIP.664 AUC-value printed 0.14
gl-PG16 = test: D7324-capture ELISA; settings: PGT145-purified trimers; SOSIP.664 AUC-value printed 0.01
2G12 = test: D7324-capture ELISA; settings: PGT145-purified trimers; SOSIP.664 AUC-value printed 2.89
PG16 = test: D7324-capture ELISA; settings: PGT145-purified trimers; SOSIP.664 AUC-value printed 0.55
F105 = test: D7324-capture ELISA; settings: PGT145-purified trimers; SOSIP.664 AUC-value printed 0.12
CH103 = test: D7324-capture ELISA; settings: PGT145-purified trimers; SOSIP.664 AUC-value printed 1.34
[1] = target: HIV-1 LAI Env (parental LAI virus) (HIV-1 (isolate LAI)) (UniProt P03377)

Row | Substance | ratio to parent (PG9) | ratio to parent (PGT151) | ratio to parent (PGT145) | ratio to parent (gl-PG9) | ratio to parent (PGT121) | ratio to parent (CH01) | ratio to parent (VRC26.09) | ratio to parent (gl-CH01) | ratio to parent (gl-PG16) | ratio to parent (2G12) | ratio to parent (PG16) | ratio to parent (F105) | ratio to parent (CH103) | IC50 of neutralization of the parental LAI virus [1]
1 | BG505 SOSIP.664-D7324 trimer E153C; R178C; G152E | 2 | 1 | 1 | 1.4 | 1.5 | 1.9 | 1.3 | 2.1 | 3.9 | 1 | 1.7 | 4.7 | 2.3 | 
2 | PG9 (antibody) |  |  |  |  |  |  |  |  |  |  |  |  |  | 2 mg/L
